# Key:
# [1] = substrate: C[C@@H]1C[C@@H](O)CC(C)(C)C1=O; test: Michaelis constant (Km) and maximum velocity (Vmax); type: biochemical, Corynebacterium aquaticum AKU611; settings: other: compound as substrate; pH 7.0; 37.0 °C
# Method: (§1) A basal reaction mixture having a total volume of 500 μl includes 100 μl of 1 M potassium phosphate buffer (pH 7.0), 20 μl of 8 mM NADH in 0.2 mM KOH, 10-40 μl of the enzyme solution (i.e., levodione reductase), and water up to a total of 500 μl . This reaction mixture was incubated for 1 minute at 37 ° C. Then, 2 μl of 0.5 M levodione solution were added to give a final concentration of 2 mM, and the whole mixture was incubated for 1 minute at 37 ° C. The levodione reductase enzyme activity was monitored with the decrease of the absorbance of NADH at 340 nm.
# (§2) The Km and Vmax values of the enzyme were measured using levodione and actinol as the substrates. The basic enzyme assay method is the same as described under 1, but the substrate and the enzyme concentrations were varied.
# (§3) The Km and Vmax values were calculated on the basis of the known Michaelis-Menten equation. Km is the concentration of the substrate that gives 50% of the Vmax of the enzyme reaction.
# [2] = substrate: C[C@@H]1CC(=O)CC(C)(C)C1=O; test: as above; type: biochemical, Corynebacterium aquaticum AKU611; settings: other: compound as substrate; pH 7.0; 37.0 °C
# Method: as §1, §2, §3
protein,measurement,setting,value
"levodione reductase (Leifsonia aquatica) (protein, The LR is isolated and purified from the cell-free extract of disrupted cells; made in house; host or cells: Corynebacterium aquaticum AKU611 (FERM BP-6448); This is the natural producer and there was no recombinant expression; The enzyme was purified by ammonium sulfate precipitation and DEAE-Sephacel, alkyl Superose and MONO Q chromatography) MTATSSPTTRFTDRVVLITGGGSGLGRATAVRLAAEGAKLSLVDVSSEGLEASKAAVLETAPDAEVLTTVADVSDEAQVEAYVTATTERFGRIDGFFNNAGIEGKQNPTESFTAAEFDKVVSINLRGVFLGLEKVLKIMREQGSGMVVNTASVGGIRGIGNQSGYAAAKHGVVGLTRNSAVEYGRYGIRINAIAPGAIWTPMVENSMKQLDPENPRKAAEEFIQVNPSKRYGEAPEIAAVVAFLLSDDASYVNATVVPIDGGQSAAY",Km,[1],1.36 mM
same,Vmax,[1],15.91 unit/mg
same,Km,[2],8.5 mM
same,Vmax,[2],101.26 unit/mg

# Source: patent US6465228B1, “Levodione reductase” (Roche Vitamins, Inc., priority 1999, dated 2002)
